Holding throughout (experiment): MST
For test [1], the target named is Enhanced GFP with C-terminal (GGGGS)3GG linker and RQLL.
The target of test [2] is Sortilin extracellular domain (ECD) (M1-S756) C-terminally fused to 6His (UniProt Q99523).
Test [3] addresses T1, Sortilin extracellular domain (ECD) (M1-S756) C-terminally fused to 6His (UniProt Q99523 78-756).
T1 sequence: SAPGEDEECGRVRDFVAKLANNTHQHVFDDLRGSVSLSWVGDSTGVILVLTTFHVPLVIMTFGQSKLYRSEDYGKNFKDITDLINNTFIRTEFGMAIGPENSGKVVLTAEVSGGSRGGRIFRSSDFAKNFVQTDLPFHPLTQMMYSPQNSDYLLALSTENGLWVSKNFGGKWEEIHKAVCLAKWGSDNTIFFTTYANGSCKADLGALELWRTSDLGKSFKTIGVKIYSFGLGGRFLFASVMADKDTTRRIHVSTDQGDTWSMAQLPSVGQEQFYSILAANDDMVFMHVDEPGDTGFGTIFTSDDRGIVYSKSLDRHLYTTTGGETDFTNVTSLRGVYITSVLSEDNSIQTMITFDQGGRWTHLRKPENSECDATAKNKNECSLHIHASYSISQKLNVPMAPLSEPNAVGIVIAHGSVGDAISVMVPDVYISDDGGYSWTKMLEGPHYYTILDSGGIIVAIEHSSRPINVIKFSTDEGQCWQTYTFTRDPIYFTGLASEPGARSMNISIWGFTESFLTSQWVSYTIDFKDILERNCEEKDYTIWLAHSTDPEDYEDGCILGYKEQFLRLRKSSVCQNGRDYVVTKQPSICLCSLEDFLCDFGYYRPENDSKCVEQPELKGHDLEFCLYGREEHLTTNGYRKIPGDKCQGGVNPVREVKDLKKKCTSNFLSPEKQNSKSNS

With “Sortilin extracellular domain (ECD) (M1-S756) C-terminally fused to 6His (from UniProt Q99523 78-756) (domain or fragment)”, the Kd – broadly, the free concentration of one partner at which half of the binding sites on the other are occupied at equilibrium, for simple one-to-one binding – in test [1] turned out to be 74 nM.

For “TNFa (V76-L233) with C-terminal (GGGGS)3GG linker and RQLL”, the Kd in test [2] was 86.5 nM.

For the molecule “TNFa (V76-L233) without RQLL (natural protein)”, in test [2], the Kd was above 200000 nM.

B1: progranulin N-terminally tagged with the HiBiT peptide (ligand)
chain: TRCPDGQFCPVACCLDPGGASYSCCRPLLDKWPTTLSRHLGGPCQVDAHCSAGHSCIFTVSGTSSCCPFPEAVACGDGHHCCPRGFHCSADGRSCFQRSGNNSVGAIQCPDSQFECPDFSTCCVMVDGSWGCCPMPQASCCEDRVHCCPHGAFCDLVHTRCITPTGTHPLAKKLPAQRTNRAVALSSSVMCPDARSRCPDGSTCCELPSGKYGCCPMPNATCCSDHLHCCPQDTVCDLIQSKCLSKENATTDLLTKLPAHTVGDVKCDMEVSCPDGYTCCRLQSGAWGCCPFTQAVCCEDHIHCCPAGFTCDTQKGTCEQGPHQVPWMEKAPAHLSLPDPQALKRDVPCDNVSSCPSSDTCCQLTSGEWGCCPIPEAVCCSDHQHCCPQGYTCVAEGQCQRGSEIVAGLEKMPARRASLSHPRDIGCDQHTSCPVGQTCCPSLGGSWACCQLPHAVCCEDRQHCCPAGYTCNVKARSCEKEVVSAQPATFLARSPHVGVKDVECGEGHFCHDNQTCCRDNRQGWACCPYRQGVCCADRRHCCPAGFRCAARGTKCLRREAPRWDAPLRDPALRQLL
Molecule B1 came in with a Kd in test [3] of 3.5 ± 1.6 nM.

The values above are taken from doi:10.1101/2025.03.03.641244 (bioRxiv, 2025).
